B1: Pistol ribozyme (parent)
chain: GGGUCGUUGUUCCAUAAUCGCGUGGAUAUGGCACGCAAGUUUCUACCGGGCACCGUAAAUGUCCGACUGGAGCCGUUCGGGCGGCUAUAAACAGACCUCAGGCCCGAAGCGUGGCGGCACCUGCCGCCGGUGGUAAAAAAGAUCGGAAGAGCACACGUCU

In the data set the parent is B1. The experiment in a line: aptazyme ON/OFF ratio, guanine; higher = stronger switching; co-transcriptional cleavage with and without guanine.
For the variant U7A U8G G9U U10G U11C C12A C13G, the “aptazyme ON/OFF ratio” value was 1.13.

With U7A U8G G9U U10G U11C C12A C13A, the “aptazyme ON/OFF ratio” value is 1.14. The value for U7A U8G G9U U10G U11C C12A C13U was 1.16. The figure for U7A U8G U10C U11A C12A C13G is 1.53; for U7A U8G U10C U11A C12A C13U it is 1.37; for U7A U8G U10C U11A C12A C13A it is 1.27. The figure for U7A U8G U10C U11C C13U is 1.12; for U7A U8G U10C U11C C13G it is 1.13. As to U7A U8G U10C U11C C13A, the “aptazyme ON/OFF ratio” value was determined as 1.06. The value for U7A U8G G9U U10G U11A C12A C13U was 1.48; that for U7A U8G G9U U10G U11A C12A C13A was 1.16; that for U7A U8G G9U U10G U11A C12A C13G was 1.39. The figure for U7A U8G U10A is 2.44; for U7A U8G U10C it is 1.75.

As for U7A U8G U10G, the “aptazyme ON/OFF ratio” value was 1.25. Turning to U7A U8G G9U U10G U11A C12U C13U, the “aptazyme ON/OFF ratio” value worked out at 1.42.

Consider U7A U8G G9U U10G U11A C12U C13A, for which the “aptazyme ON/OFF ratio” value turned out to be 1.64.

Turning to U7A U8G G9U U10G U11A C12U C13G, the “aptazyme ON/OFF ratio” value is 1.18.

In the case of U7A U8G U10C C12U, the “aptazyme ON/OFF ratio” value is 1.5. The figure for U7A U8G U10C C12G is 1.12; for U7A U8G U10C C12A it is 1.33. Turning to U7A U8G G9U U11C C13G, the “aptazyme ON/OFF ratio” value is 1.06. The figure for U7A U8G G9U U11C C13A is 1.26; for U7A U8G G9U U11C C13U it is 1.38; for U7A U8G U10G U11G it is 1.44.

Turning to U7A U8G U10G U11A, the “aptazyme ON/OFF ratio” value worked out at 2.88. The value for U7A U8G U10G U11C was 1.39; that for U7A U8G G9U U11C was 1.45; that for U7A U8G G9U U11G was 1.94.

Regarding U7A U8G G9U U11A, the “aptazyme ON/OFF ratio” value stood at 2.05. The figure for U7A U8G U10A C13U is 1.12. The value for U7A U8G U10A C13G was 1.26; that for U7A U8G U10A C13A was 1.09; that for U7A U8G G9U U11G C13G was 1.4.

Turning to U7A U8G G9U U11G C13U, the “aptazyme ON/OFF ratio” value worked out at 1.45. The figure for U7A U8G G9U U11G C13A is 1.28.

In the case of U7A U8G G9U U11G C12U, the “aptazyme ON/OFF ratio” value was determined as 1.26. For the variant U7A U8G G9U U11G C12A, the “aptazyme ON/OFF ratio” value amounted to 1.38. The value for U7A U8G G9U U11G C12G was 1.56; that for U7A U8G G9U U10G U11G C12U C13A was 1.38; that for U7A U8G G9U U10G U11G C12U C13U was 1.21. With U7A U8G G9U U10G U11G C12U C13G, the “aptazyme ON/OFF ratio” value is 1.3. The figure for U7A U8G G9U U10G U11C C12G C13G is 1.13; for U7A U8G G9U U10G U11C C12G C13A it is 1.11; for U7A U8G G9U U10G U11C C12G C13U it is 1.22. The figure for U7A U8G U11C C12U is 1.31; for U7A U8G U11C C12G it is 1.05; for U7A U8G U11C C12A it is 1.24. The figure for U7A U8G G9U U11C C12G C13A is 1.16; for U7A U8G G9U U11C C12G C13G it is 1.32.

Take U7A U8G G9U U11C C12G C13U: the “aptazyme ON/OFF ratio” value was determined as 1.27. The figure for U7A U8G U10G U11C C12A C13U is 1.51.

Regarding U7A U8G U10G U11C C12A C13A, the “aptazyme ON/OFF ratio” value amounted to 1.39.

On to U7A U8G U10G U11C C12A C13G, for which the “aptazyme ON/OFF ratio” value was found to be 1.11.

As to U7A U8G U10C U11C C12U C13A, the “aptazyme ON/OFF ratio” value was found to be 1.45. Regarding U7A U8G U10C U11C C12U C13U, the “aptazyme ON/OFF ratio” value was 1.17.

For U7A U8G U10C U11C C12U C13G, the “aptazyme ON/OFF ratio” value is 1.18.

As to U7A U8G U10C U11A C13G, the “aptazyme ON/OFF ratio” value is 1.21.

In the case of U7A U8G U10C U11A C13A, the “aptazyme ON/OFF ratio” value worked out at 1.45.

As for U7A U8G U10C U11A C13U, the “aptazyme ON/OFF ratio” value was determined as 1.21. The value for U7A U8G G9U U11A C12G was 1.38; that for U7A U8G G9U U11A C12U was 1.38; that for U7A U8G G9U U11A C12A was 1.59.

In the case of U7A U8G G9U U10G U11G C12A C13A, the “aptazyme ON/OFF ratio” value was found to be 1.12.

With U7A U8G G9U U10G U11G C12A C13G, the “aptazyme ON/OFF ratio” value is 1.13. The figure for U7A U8G G9U U10G U11G C12A C13U is 1.21; for U7A U8G U10A U11C C13U it is 1.05.

For U7A U8G U10A U11C C13A, the “aptazyme ON/OFF ratio” value was determined as 1.18. Take U7A U8G U10A U11C C13G: the “aptazyme ON/OFF ratio” value came to 1.25.

As for U7A U8G G9U U10G U11A C12A, the “aptazyme ON/OFF ratio” value turned out to be 1.74. U7A U8G G9U U10G U11A C12U: the “aptazyme ON/OFF ratio” value was found to be 1.27. The value for U7A U8G G9U U10G U11A C12G was 1.46. The figure for U7A U8G G9U U11G C12G C13G is 1.19; for U7A U8G G9U U11G C12G C13U it is 1.22. Take U7A U8G G9U U11G C12G C13A: the “aptazyme ON/OFF ratio” value turned out to be 1.22. Turning to U7A U8G U10A C12U C13A, the “aptazyme ON/OFF ratio” value worked out at 1.32. The value for U7A U8G U10A C12U C13G was 1.25. The figure for U7A U8G U10A C12U C13U is 1.42. On to U7A U8G G9U U11C C12U C13G, for which the “aptazyme ON/OFF ratio” value amounted to 1.15. The figure for U7A U8G G9U U11C C12U C13A is 1.17; for U7A U8G G9U U11C C12U C13U it is 1.07. The figure for U7A U8G G9U U11A C12U C13G is 1.26. Turning to U7A U8G G9U U11A C12U C13A, the “aptazyme ON/OFF ratio” value is 1.43.

As for U7A U8G G9U U11A C12U C13U, the “aptazyme ON/OFF ratio” value turned out to be 1.07.

Values taken from the RNAGym collection of RNA variant scans (doi:10.1021/acssynbio.7b00057).
